Our source for the stoichiometry N (Fabs per trimer) values is publication PMC4826291.

For the test, the target named is BG505 SOSIP.664 gp140 trimer (HIV-1 (strain BG505)) (UniProt Q2N0S6). The test can be described thus: negative-stain EM.

In the case of CH235 Fab, the stoichiometry N (Fabs per trimer) came to 1.
